Test results reported in US20250076311A1 (Chugai, published 2025).
Read-outs that look alike come from different tables or passages of the source. Values belong to the binder of their own block, whether it stands above or below them.

Columns and labels:
[1] = target: T1, cynomolgus monkey FcγRIIIaS extracellular domain with C-terminal His-tag (cynomolgus monkey, UniProt Q8SPW2 21-206 at identity 1.00)); experiment: SPR, antibody captured, FcγR analyte
T1 construct: also called cyno FcgRIIIaS; cynoFcγRIIIaS
T1 chain: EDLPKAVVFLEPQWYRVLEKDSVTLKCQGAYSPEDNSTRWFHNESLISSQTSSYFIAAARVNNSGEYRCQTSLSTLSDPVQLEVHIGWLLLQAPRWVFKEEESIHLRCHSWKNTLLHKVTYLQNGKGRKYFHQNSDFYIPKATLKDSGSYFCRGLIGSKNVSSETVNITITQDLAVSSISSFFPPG

[2] = target: T1, cynomolgus monkey FcγRIIIaS …; experiment: SPR, KD(SG1)/KD(variant)
[3] = target: T2, cynomolgus monkey FcγRIIb extracellular domain with C-terminal His-tag (cynomolgus monkey); experiment: SPR, KD(SG1)/KD(variant)
T2 construct: also called cyno FcgRIIb; cynoFcγRIIb
T2 chain: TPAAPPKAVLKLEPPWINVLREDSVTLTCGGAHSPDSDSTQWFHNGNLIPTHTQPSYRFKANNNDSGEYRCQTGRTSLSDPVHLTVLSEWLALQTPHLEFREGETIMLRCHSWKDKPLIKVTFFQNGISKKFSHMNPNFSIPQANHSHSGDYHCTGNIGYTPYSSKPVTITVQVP

[4] = target: T3, cynomolgus monkey FcγRIIa3 extracellular domain with C-terminal His-tag (cynomolgus monkey); experiment: SPR, KD(SG1)/KD(variant)
T3 construct: also called cyno FcgRIIa3; cynoFcγRIIa3
T3 chain: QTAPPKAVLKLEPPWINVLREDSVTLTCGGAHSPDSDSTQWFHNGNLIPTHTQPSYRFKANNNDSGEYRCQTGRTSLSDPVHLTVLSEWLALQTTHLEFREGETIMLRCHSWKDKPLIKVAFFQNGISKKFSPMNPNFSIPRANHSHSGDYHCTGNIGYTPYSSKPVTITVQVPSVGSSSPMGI

[5] = target: T4, human FcγRIIb extracellular domain, C-terminal His-tag (human, UniProt P31994 43-217); experiment: SPR (BIACORE), antibody captured, FcgR analyte, 25 C
T4 construct: also called FcgRIIb
T4 sequence: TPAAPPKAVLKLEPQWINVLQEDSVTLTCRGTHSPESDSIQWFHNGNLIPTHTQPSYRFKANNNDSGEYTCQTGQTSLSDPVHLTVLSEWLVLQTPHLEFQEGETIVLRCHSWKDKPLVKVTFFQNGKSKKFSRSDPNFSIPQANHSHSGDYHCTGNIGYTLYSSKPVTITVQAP

[6] = target: T5, cynomolgus monkey FcγRIIIaS extracellular domain, His-tagged (cynomolgus monkey, UniProt Q8SPW2 21-206 at identity 1.00)); experiment: SPR Biacore, antibody captured, FcgR analyte
T5 construct: also called cyno FcγRIIIaS; cynoFcγRIIIaS; not shown: C-terminal His-tag
T5 chain: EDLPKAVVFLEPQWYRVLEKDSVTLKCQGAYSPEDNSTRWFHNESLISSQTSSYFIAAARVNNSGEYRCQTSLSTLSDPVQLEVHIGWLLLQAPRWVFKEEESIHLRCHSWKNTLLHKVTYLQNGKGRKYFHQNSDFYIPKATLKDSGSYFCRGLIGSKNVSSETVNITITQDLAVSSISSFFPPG

[7] = target: T6, human FcγRIIb extracellular domain, His-tagged (human, UniProt P31994 43-217); experiment: SPR Biacore, KD(SG1)/KD(variant)
T6 construct: also called FcgRIIb (human); not shown: C-terminal His-tag
T6 sequence: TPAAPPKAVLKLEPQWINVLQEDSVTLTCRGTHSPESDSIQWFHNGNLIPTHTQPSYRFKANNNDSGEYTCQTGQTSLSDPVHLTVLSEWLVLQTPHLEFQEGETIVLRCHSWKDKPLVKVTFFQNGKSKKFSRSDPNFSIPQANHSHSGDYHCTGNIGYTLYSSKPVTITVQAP

[8] = target: T7, human FcγRIIaH extracellular domain with C-terminal His-tag (human, UniProt P12318 34-217); experiment: SPR, antibody captured, FcγR analyte
T7 construct: also called human FcgRIIaH; FcγRIIa (type H)
T7 sequence: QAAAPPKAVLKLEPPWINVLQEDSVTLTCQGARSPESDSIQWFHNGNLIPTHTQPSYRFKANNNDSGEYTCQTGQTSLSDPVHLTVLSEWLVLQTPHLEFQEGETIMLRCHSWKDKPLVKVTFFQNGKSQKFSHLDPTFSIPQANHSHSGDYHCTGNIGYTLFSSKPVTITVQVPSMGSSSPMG

[9] = target: T1, cynomolgus monkey FcγRIIIaS …; experiment: SPR, antibody captured, FcγR analyte
Method: (§1) The kinetic analysis of interactions between these antibodies and FcγR was carried out using BIACORE® T200 or BIACORE® 4000 (GE Healthcare). HBS-EP+ (GE Healthcare) was used as the running buffer, and the measurement temperature was set to 25° C. […] After the measurement, the antibody captured on the chip was washed off by allowing reaction with 10 mM glycine-HCl, pH1.5 and 25 mM NaOH so that the chip was regenerated and used repeatedly. The sensorgrams obtained as measurement results were analyzed by the 1:1 Langmuir binding model using the BIACORE® Evaluation Software to calculate the binding rate constant ka (L/mol/s) and dissociation rate constant kd (1/s), and the dissociation constant KD (mol/L) was calculated from these values. […] Regarding such interactions, KD values were calculated using the following 1:1 binding model described in BIACORE® T100 Software Handbook BR1006-48 Edition AE.

[10] = target: T8, human FcγRIIIaV extracellular domain with C-terminal His-tag (human, UniProt P08637 17-208); experiment: SPR, KD(SG1)/KD(variant)
T8 construct: also called human FcgRIIIaV

[11] = target: T9, human FcγRIIaR extracellular domain with C-terminal His-tag (human, UniProt P12318 34-217); experiment: SPR, KD(SG1)/KD(variant)
T9 construct: also called human FcgRIIaR; FcγRIIa (type R)
T9 chain: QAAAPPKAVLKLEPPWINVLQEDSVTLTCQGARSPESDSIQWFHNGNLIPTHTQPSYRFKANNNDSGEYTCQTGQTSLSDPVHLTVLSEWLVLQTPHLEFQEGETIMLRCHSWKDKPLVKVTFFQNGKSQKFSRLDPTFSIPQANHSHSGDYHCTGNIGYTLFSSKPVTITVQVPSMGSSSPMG

[12] = target: T10, cynomolgus monkey FcγRIIa2 extracellular domain with C-terminal His-tag (cynomolgus monkey); experiment: SPR, KD(SG1)/KD(variant)
T10 construct: also called cyno FcgRIIa2; cynoFcγRIIa2
T10 chain: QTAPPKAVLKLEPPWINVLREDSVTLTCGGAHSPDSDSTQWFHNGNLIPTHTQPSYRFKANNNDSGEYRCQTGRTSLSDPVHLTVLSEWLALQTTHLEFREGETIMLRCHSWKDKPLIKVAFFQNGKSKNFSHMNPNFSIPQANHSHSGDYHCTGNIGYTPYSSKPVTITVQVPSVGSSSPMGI

[13] = target: T11, human FcγRIIb extracellular domain with C-terminal His-tag (human, UniProt P31994 43-217); experiment: SPR, KD(SG1)/KD(variant)
T11 construct: also called human FcgRIIb
T11 sequence: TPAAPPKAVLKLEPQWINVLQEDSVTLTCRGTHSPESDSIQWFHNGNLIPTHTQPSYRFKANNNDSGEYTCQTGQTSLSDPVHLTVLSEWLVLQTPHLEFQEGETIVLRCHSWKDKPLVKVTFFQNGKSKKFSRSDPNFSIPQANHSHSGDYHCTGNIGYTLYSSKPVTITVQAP

[14] = target: T1, cynomolgus monkey FcγRIIIaS …; experiment: SPR, KD(SG1)/KD(variant)
Method: as §1

[15] = target: T12, human FcγRIIaR extracellular domain, His-tagged (human, UniProt P12318 34-217); experiment: SPR Biacore, antibody captured, FcgR analyte
T12 construct: also called human FcγRIIa (type R); FcgRIIaR; not shown: C-terminal His-tag
T12 chain: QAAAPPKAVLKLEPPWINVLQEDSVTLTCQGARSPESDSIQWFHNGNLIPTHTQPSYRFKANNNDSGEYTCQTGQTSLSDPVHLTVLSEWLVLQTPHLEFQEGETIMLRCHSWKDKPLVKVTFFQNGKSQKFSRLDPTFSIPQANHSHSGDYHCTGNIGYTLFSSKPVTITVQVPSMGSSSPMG

[16] = target: T6, human FcγRIIb extracellular domain, …; experiment: SPR Biacore, antibody captured, FcgR analyte
[17] = target: T13, cynomolgus monkey FcγRIIa2 extracellular domain, His-tagged (cynomolgus monkey); experiment: SPR Biacore, antibody captured, FcgR analyte
T13 construct: also called cyno FcγRIIa2; cynoFcgRIIa2; not shown: C-terminal His-tag
T13 chain: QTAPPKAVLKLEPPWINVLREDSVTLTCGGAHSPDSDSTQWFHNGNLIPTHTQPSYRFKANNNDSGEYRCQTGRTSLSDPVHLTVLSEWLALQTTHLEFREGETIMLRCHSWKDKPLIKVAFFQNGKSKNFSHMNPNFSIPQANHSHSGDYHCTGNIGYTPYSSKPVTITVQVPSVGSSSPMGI

T8 sequence (P08637 17-208 F176V): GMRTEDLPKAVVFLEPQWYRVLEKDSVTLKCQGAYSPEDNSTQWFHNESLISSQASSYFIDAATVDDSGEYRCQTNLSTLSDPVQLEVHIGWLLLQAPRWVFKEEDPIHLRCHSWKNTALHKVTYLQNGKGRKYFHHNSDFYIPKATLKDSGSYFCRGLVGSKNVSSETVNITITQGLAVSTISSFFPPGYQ

Kd [1]: 3.7 µM | KD fold (SG1 = 1) [2]: 0.08 fold | KD fold (SG1 = 1) [3]: 5 fold | KD fold (SG1 = 1) [4]: 4.5 fold
B1: MS1032LO06-MY201 (antibody, human IgG1, kappa)
heavy: QVTLKESGPVLVKPTETLTLTCTVSGIDLSHDDISWVRQAPGKGLEWVGIISYAGSTYYASWAKGRLTISKDTSKNQVVLTMTNMDPVDTATYYCARGVPAYSHGGDLWGQGTLVTVSSASTKGPSVFPLAPSSKSTSGGTAALGCLVKDYFPEPVTVSWNSGALTSGVHTFPAVLQSSGLYSLSSVVTVPSSSLGTQTYICNVNHKPSNTKVDKKVEPKSCDKTHTCPPCPAPELLNGPSVFLFPPKPKDTLMISRTPEVTCVVVDVSDEDPEVKFNWYVDGVEVHNAKTKPREEQYNSTYRVVSVLTVLHQDWLNGKEYKCKVSNKALPKPIEKTISKAKGQPREPQVYTLPPSREEMTKNQVSLTCLVKGFYPSDIAVEWESNGQPENNYKTTPPVLDSDGSFFLYSKLTVDKSRWQQGNVFSCSVMHEALHNHYTQKSLSLSP
light: DIVMTQSPATLSLSPGERATLSCTSSQSVYHANWLSWFQQKPGQPPKLLIYWASTLAYGVPSRFSGSGSGTDFTLTISSLQPEDAATYYCAGGYGGGRYAFGQGTKVEIKRTVAAPSVFIFPPSDEQLKSGTASVVCLLNNFYPREAKVQWKVDNALQSGNSQESVTEQDSKDSTYSLSSTLTLSKADYEKHKVYACEVTHQGLSSPVTKSFNRGEC
notes: also called M103205H795-MY201; copies: 2 + 2

Kd [5]: 5.8 µM
B2: MS103240H795-SG1/M103202L1045-SK1 (antibody, human IgG1, kappa)
heavy: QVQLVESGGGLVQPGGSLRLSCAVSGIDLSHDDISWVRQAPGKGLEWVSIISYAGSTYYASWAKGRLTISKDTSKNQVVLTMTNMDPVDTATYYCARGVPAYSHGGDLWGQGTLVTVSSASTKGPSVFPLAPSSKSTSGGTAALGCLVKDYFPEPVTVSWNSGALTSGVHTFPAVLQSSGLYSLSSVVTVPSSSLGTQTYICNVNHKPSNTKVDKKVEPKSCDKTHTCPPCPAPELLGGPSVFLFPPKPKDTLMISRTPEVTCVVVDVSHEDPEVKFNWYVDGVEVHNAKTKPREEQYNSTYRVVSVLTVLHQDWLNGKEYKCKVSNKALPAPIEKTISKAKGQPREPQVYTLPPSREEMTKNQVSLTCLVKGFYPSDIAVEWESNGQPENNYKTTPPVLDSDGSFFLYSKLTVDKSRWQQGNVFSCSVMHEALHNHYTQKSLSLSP
light: DIVMTQSPATLSLSPGERATLSCTTSQSVYHENWLSWFQQKPGQPPKLLIYWASTLAYGVPSRFSGSGSGTDFTLTISSLQPEDAATYYCAGGYGGGRYAFGQGTKVEIKRTVAAPSVFIFPPSDEQLKSGTASVVCLLNNFYPREAKVQWKVDNALQSGNSQESVTEQDSKDSTYSLSSTLTLSKADYEKHKVYACEVTHQGLSSPVTKSFNRGEC
notes: Parent of the Fc variants; anti-latent myostatin variable region, human IgG1-type constant region SG1; also called MS1032LO19-SG1; copies: 2 + 2

Kd [6]: 12 µM | KD fold (SG1 = 1) [7]: 6.6 fold
B3: M103205H795-MY001/M103202L889-SK1 (antibody, human IgG1, kappa, name in EU numbering)
heavy: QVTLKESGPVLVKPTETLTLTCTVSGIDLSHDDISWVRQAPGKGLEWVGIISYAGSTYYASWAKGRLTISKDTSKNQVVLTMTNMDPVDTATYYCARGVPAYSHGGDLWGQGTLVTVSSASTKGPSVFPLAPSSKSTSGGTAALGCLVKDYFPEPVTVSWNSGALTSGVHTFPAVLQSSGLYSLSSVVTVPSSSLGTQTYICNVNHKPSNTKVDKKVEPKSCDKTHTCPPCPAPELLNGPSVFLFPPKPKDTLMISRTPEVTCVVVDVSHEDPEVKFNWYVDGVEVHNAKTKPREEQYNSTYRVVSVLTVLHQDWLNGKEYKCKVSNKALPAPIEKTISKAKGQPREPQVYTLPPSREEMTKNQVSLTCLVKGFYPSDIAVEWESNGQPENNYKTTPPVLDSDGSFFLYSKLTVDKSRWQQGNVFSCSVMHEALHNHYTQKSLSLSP
light: DIVMTQSPATLSLSPGERATLSCTSSQSVYHANWLSWFQQKPGQPPKLLIYWASTLAYGVPSRFSGSGSGTDFTLTISSLQPEDAATYYCAGGYGGGRYAFGQGTKVEIKRTVAAPSVFIFPPSDEQLKSGTASVVCLLNNFYPREAKVQWKVDNALQSGNSQESVTEQDSKDSTYSLSSTLTLSKADYEKHKVYACEVTHQGLSSPVTKSFNRGEC
notes: Substitution introduced into M103205H795-SG1; EU numbering

Kd [1]: 4.1 µM | Kd [8]: 12 nM | Kd [9]: 5.2 µM | KD fold (SG1 = 1) [2]: 0.07 fold | KD fold (SG1 = 1) [10]: 0.03 fold | KD fold (SG1 = 1) [11]: 0.8 fold | KD fold (SG1 = 1) [12]: 3.8 fold | KD fold (SG1 = 1) [13]: 4.7 fold | KD fold (SG1 = 1) [14]: 0.07 fold
B4: MS1032LO06-MY351 (antibody, human IgG1, kappa)
heavy: QVTLKESGPVLVKPTETLTLTCTVSGIDLSHDDISWVRQAPGKGLEWVGIISYAGSTYYASWAKGRLTISKDTSKNQVVLTMTNMDPVDTATYYCARGVPAYSHGGDLWGQGTLVTVSSASTKGPSVFPLAPSSKSTSGGTAALGCLVKDYFPEPVTVSWNSGALTSGVHTFPAVLQSSGLYSLSSVVTVPSSSLGTQTYICNVNHKPSNTKVDKKVEPKSCDKTHTCPPCPAPELLNGPSVFLFPPKPKDTLMISRTPEVTCVVVDVSDEDPEVKFNWYVDGVEVHNAKTKPREEQYNSTYRVVSVLTVLHRDWLNGKEYKCKVSNKALPKPIEKTISKAKGQPREPQVYTLPPSREEMTKNQVSLTCLVKGFYPSDIAVEWESNGQPENNYKTTPPVLDSDGSFFLYSKLTVKKSRWQQGNVFSCSVMHEALHNHYTQKSLSLSP
light: DIVMTQSPATLSLSPGERATLSCTSSQSVYHANWLSWFQQKPGQPPKLLIYWASTLAYGVPSRFSGSGSGTDFTLTISSLQPEDAATYYCAGGYGGGRYAFGQGTKVEIKRTVAAPSVFIFPPSDEQLKSGTASVVCLLNNFYPREAKVQWKVDNALQSGNSQESVTEQDSKDSTYSLSSTLTLSKADYEKHKVYACEVTHQGLSSPVTKSFNRGEC
notes: also called M103205H795-MY351; copies: 2 + 2

Kd [15]: 210 nM | Kd [16]: 3.6 µM | Kd [17]: 2300 nM
B5: M103205H795-MY074/M103202L889-SK1 (antibody, human IgG1, kappa, name in EU numbering)
heavy: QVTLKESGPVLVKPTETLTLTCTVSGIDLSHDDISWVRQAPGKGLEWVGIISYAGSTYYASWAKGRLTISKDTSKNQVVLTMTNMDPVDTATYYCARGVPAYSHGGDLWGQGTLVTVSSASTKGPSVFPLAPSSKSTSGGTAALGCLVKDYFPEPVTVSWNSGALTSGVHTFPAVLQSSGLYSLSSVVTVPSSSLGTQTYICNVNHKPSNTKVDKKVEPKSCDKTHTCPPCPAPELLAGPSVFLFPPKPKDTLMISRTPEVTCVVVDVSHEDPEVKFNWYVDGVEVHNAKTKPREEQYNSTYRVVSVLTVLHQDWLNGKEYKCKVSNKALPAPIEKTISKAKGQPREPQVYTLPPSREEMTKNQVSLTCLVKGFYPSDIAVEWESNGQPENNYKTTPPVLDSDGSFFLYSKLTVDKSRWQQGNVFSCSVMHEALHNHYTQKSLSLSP
light: DIVMTQSPATLSLSPGERATLSCTSSQSVYHANWLSWFQQKPGQPPKLLIYWASTLAYGVPSRFSGSGSGTDFTLTISSLQPEDAATYYCAGGYGGGRYAFGQGTKVEIKRTVAAPSVFIFPPSDEQLKSGTASVVCLLNNFYPREAKVQWKVDNALQSGNSQESVTEQDSKDSTYSLSSTLTLSKADYEKHKVYACEVTHQGLSSPVTKSFNRGEC
notes: as for B3
